From publication PMC4741949, “Aptamer targeting EGFRvIII mutant hampers its constitutive autophosphorylation and affects migration, invasion and proliferation of glioblastoma cells”

Target: EGFR wild-type extracellular domain (human, UniProt P00533 25-645)
Assay: UV (254 nm) cross-linking MALDI-MS; 1:1 molar; peptide 495-500 (domain IV) linked to AGGC and GAGGC; RT-qPCR: 15 min 37 C, 100 ug/ml polyinosine, DPBS washes; flow cytometry: DPBS, 37 C, 30 min; confocal: DMEM without FBS; UV cross-linking buffer not given
Conditions: protein: recombinant

## GCCUUAGUAACGUGCUUUGAUGUCGAUUCGACAGGAGGC (structured_RNA, 2'F-pyrimidines (2'F-C, 2'F-U)) [CL4]
  binding result: binds
